{
  "source": "patent US20220276241A1",
  "about": "(TRUSTEES OF INDIANA UNIVERSITY, published 2022)",
  "binders": {"B1": {"name": "Fab N2 (Fab, V domains shown)", "VH": "EVQLVESGGGLVQPGGSLRLSCAASGFNFSSSIHWVRQAPGKGLEWVASISSSSGSTSYADSVKGRFTISADTSKNTAYLQMNSLRAEDTAVYYCARQWSSVMEWYIGLDYWGQGTLVTVSS", "VL": "DIQMTQSPSSLSASVGDRVTITCRASQSVSSAVAWYQQKPGKAPKLLIYSASSLYSGVPSRFSGSRSGTDFTLTISSLQPEDFATYYCQQSSSSLITFGQGTKVEIKR"}},
  "target": "T1, PhnD E177NΔ (E. coli, UniProt P16682 27-329, acrylodan on Cys 126)",
  "T1 chain": "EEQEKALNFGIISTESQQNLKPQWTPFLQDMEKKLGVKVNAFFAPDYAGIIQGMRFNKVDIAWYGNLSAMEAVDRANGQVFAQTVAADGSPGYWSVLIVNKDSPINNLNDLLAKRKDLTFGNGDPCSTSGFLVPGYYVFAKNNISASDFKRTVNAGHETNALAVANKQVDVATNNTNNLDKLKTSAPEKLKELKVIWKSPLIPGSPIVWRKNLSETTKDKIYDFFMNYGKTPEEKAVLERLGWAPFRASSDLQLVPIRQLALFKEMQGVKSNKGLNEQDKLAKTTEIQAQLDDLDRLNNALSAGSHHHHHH",
  "assay": "cell-based or functional assay",
  "data": [
    {"binder": "B1", "values": [
      {"measurement": "Kd of the PhnD mutant for glyphosate in the presence of Fab N2 (fluorescence titration)", "result": 0.45, "unit": "µM"},
      {"measurement": "fold improvement of the Kd for glyphosate on adding Fab N2, compared to the mutant in the absence of Fab N2", "result": "~18", "unit": "fold"}
    ]}
  ]
}
